Source: patent US20240417479A1 (LASSEN THERAPEUTICS, published 2024)

Legend:
[1] = molecular target: T1, human IL-18BP (interleukin-18 binding protein), mature human isoform A (human, UniProt O95998 31-194); assay: cell-based or functional assay
T1 sequence: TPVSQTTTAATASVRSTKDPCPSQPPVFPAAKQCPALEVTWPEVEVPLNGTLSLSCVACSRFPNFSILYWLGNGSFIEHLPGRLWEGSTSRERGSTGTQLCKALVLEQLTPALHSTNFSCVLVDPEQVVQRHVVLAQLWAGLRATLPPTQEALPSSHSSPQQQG

[2] = molecular target: T2, cynomolgus monkey IL-18BP (cynomolgus monkey); assay: cell-based or functional assay
T2 chain: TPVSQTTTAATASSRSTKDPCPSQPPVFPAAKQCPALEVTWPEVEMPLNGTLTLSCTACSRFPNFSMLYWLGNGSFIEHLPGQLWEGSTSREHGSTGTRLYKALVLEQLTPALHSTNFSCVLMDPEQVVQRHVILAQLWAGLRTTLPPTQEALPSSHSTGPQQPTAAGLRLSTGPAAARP

[3] = molecular target: T2, cynomolgus monkey IL-18BP; assay: cell-based or functional assay
[4] = molecular target: T1, human IL-18BP (interleukin-18 binding …); assay: cell-based or functional assay; remark: listed apart in the source
[5] = molecular target: T1, human IL-18BP (interleukin-18 binding …); assay: BLI (Octet), mAb on AHC biosensor, IL-18BP in solution

| Binder | EC50; CCL2 release (ELISA) from human PBMC with IL-12 + IL-18, PBMC assay 1 (endogenous IL-18BP) [1] | EC50; IFNγ release (ELISA) from cynomolgus monkey PBMC with IL-12 + IL-18, assay format 1 (endogenous IL-18BP) [2] | EC50; IFNγ release (ELISA) from cynomolgus monkey PBMC, assay format 2 (pre-complexed IL-18:IL-18BP, plus IL-12) [3] | EC50; IFNγ secretion (ELISA) from purified human NK cells with precomplexed hIL-18:hIL-18BP plus IL-12 [4] | Kd [5] |
| --- | --- | --- | --- | --- | --- |
| SA302a (antibody, human IgG1, V domains shown) VH: QVQLQESGPGLVKPSQTLSLTCTVSGYSITSDYNAHWIRQPPGKGLEWIGYIHYSGSTNYNPSLKSRVTISRDTSKNQFSLKLSSVTAADTAVYYCARNYGSIYVNYFDYWGQGTLVTVSS VL: EIVLTQSPATLSLSPGERATLSCSASSSVSYMYWYQQKPGQAPRPLIYRTSNLASGIPARFSGSGSGTDFTLTISSLEPEDFAVYYCQQYHSYPTFGGGTKVEIK | 25 nM | 3.4 nM | 0.63 nM | 1.3 nM |  |
| SA337a (antibody, human IgG1, V domains shown) VH: QVQLQESGPGLVKPSQTLSLTCTVSGYSITQDYNAHWIRQPPGKGLEWIGYIHYSGQTNYNPSLKSRVTISRDTSKNQFSLKLSSVTAADTAVYYCARNYGSIYVNYFDYWGQGTLVTVSS VL: EIVLTQSPATLSLSPGERATLSCSASSSVSYMYWYQQKPGQAPRPLIYRTSNLASGIPARFSGSGSGTDFTLTISSLEPEDFAVYYCQLYHSYPTFGGGTKVEIK | 4.7 nM | 0.58 nM | 0.39 nM | 0.59 nM |  |
| SA338a (antibody, human IgG1, V domains shown) VH: QVQLQESGPGLVKPSQTLSLTCTVSGYSITQDYNAHWIRQPPGKGLEWIGYIHYSGQTYYNPSLKSRVTISRDTSKNQFSLKLSSVTAADTAVYYCARNFGSIYVNYFDYWGQGTLVTVSS VL: EIVLTQSPATLSLSPGERATLSCSASSSVSYMYWYQQKPGQAPRPLIYRTSNLASGIPARFSGSGSGTDFTLTISSLEPEDFAVYYCQLYHSYPTFGGGTKVEIK | 0.9 nM | 0.14 nM | 0.41 nM | 0.43 nM |  |
| SA339a (antibody, human IgG1, V domains shown, Humanized; human IgG1, kappa) VH: QVQLQESGPGLVKPSQTLSLTCTVSGYSITQDYNAHWIRQPPGKGLEWIGYIHYSGQTYYNPSLKSRVTISRDTSKNQFSLKLSSVTAADTAVYYCARNFGSIYVNYFDYWGQGTLVTVSS VL: EIVLTQSPATLSLSPGERATLSCSASSSVSYMYWYQQKPGQAPRPLIYRTSNLASGIPARFSGSGSGTDFTLTISSLEPEDFAVYYCQQYHSYVTFGGGTKVEIK |  |  |  |  | 0.087 nM |
| SA340a (antibody, human IgG1, V domains shown) VH: QVQLQESGPGLVKPSQTLSLTCTVSGYSITQDYNAHWIRQPPGKGLEWIGYIHYSGQTYYNPSLKSRVTISRDTSKNQFSLKLSSVTAADTAVYYCARNFGSIYVNYFDYWGQGTLVTVSS VL: EIVLTQSPATLSLSPGERATLSCSASSSVSYMYWYQQKPGQAPRPLIYRTSNLASGIPARFSGSGSGTDFTLTISSLEPEDFAVYYCQQYHSYPKFGGGTKVEIK |  |  |  | 0.23 nM |  |
